{"source": "patent US20240254201A1", "about": "(ACADEMY OF MILITARY MEDICAL SCIENCE PLA, published 2024)", "binders": {"B1": {"name": "monoclonal antibody 2G1 (antibody, V domains shown)", "VH": "EVQLVESGGGLVKRGGSLRLSCVVSGYTFGGYSMHWVRQAPGKGLEWVSGISSSSYYKYYADSVKGRFTISRDNAKNSLYLQMNSLRAEDTAVYYCARDMGYCSGGSCPNFDFWGQGTTVTVSS", "VL": "DIQMTQSPSSLSASVGDRVTITCRTSQSISNYLNWYQQIPGKAPKLLISTASNLHSGVSSRFSGSGSGTHFTLTISSLQPEDFATYYCQQSYSTPSFGQGTKVEIKR", "notes": "also called 2G1-WT; wild-type 2G1"}}, "key": {"[1]": {"biological_target": "T1, GPdMucin (Ebola virus (EBOV), UniProt Q05320 33-632)", "T1 construct": "domain: GPdMucin; also called GPΔMuc; GPdmucin-His6", "experiment": "SPR, BIACORE 3000; 2G1 captured by anti-human IgG Fc on CM5, GPdMucin as analyte"}, "[2]": {"biological_target": "T1, GPdMucin", "experiment": "ELISA on coated truncated GP"}}, "data": [{"binder": "B1", "values": [{"measurement": "Kd", "setting": "[1]", "result": 0.734, "unit": "nM"}, {"measurement": "koff", "setting": "[1]", "result": "3.75e-05", "unit": "s⁻¹"}, {"measurement": "kon", "setting": "[1]", "result": 51100, "unit": "M⁻¹ s⁻¹"}, {"measurement": "EC50", "setting": "[2]", "result": 3.7, "unit": "ng/mL"}]}]}
